Results reported in US20180086804A1 (COMMISSARIAT A L ENERGIE ATOMIQUE ET AUX ENERGIES …, published 2018).
No end group written: not given here.

T1: HLA-DR13 (HLA-DRB1*13:01) (human)
T1 chain 1: not shown
T1 chain 2: not shown


What was measured:
HLA-DR7 (HLA-DRB1*07:01) = molecular target: T2, HLA-DR7 (HLA-DRB1*07:01) (human); test: competition ELISA vs biotin-YKL
T2 construct: mature; purified from homozygous EBV-transformed lymphoblastoid cells with antibody L243

[1] = molecular target: T3, HLA-DRB4 (HLA-DRB4*01:01) (human); test: competition ELISA vs biotin-E2/E168
T3 construct: mature; purified from homozygous EBV-transformed lymphoblastoid cells with antibody L243

HLA-DR3 (HLA-DRB1*03:01) = molecular target: T4, HLA-DR3 (HLA-DRB1*03:01) (human); test: competition ELISA vs biotin-MT 2-16
T4 construct: mature; purified from homozygous EBV-transformed lymphoblastoid cells with antibody L243

[2] = molecular target: T5, HLA-DR13 (HLA-DRB1*13:01) (human); test: competition ELISA vs biotin-B1 21-36
T5 construct: mature; purified from homozygous EBV-transformed lymphoblastoid cells with antibody L243

[3] = molecular target: T6, HLA-DR15 (HLA-DRB1*15:01) (human); test: competition ELISA vs biotin-A3 152-166
T6 construct: mature; purified from homozygous EBV-transformed lymphoblastoid cells with antibody L243

HLA-DR1 (HLA-DRB1*01:01) = molecular target: T7, HLA-DR1 (HLA-DRB1*01:01) (human); test: competition ELISA vs biotin-HA 306-318;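 further: HLA and competitor incubated 24 to 72 h, maximal signal taken from wells lacking competitor, background from wells lacking HLA molecule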
T7 construct: mature; class II HLA molecule purified from homozygous EBV-transformed lymphoblastoid cells with antibody L243

[4] = molecular target: T8, HLA-DRB5 (HLA-DRB5*01:01) (human); test: competition ELISA vs biotin-HA 306-318;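 further: HLA and competitor incubated 24 to 72 h, maximal signal taken from wells lacking competitor, background from wells lacking HLA molecule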
T8 construct: mature; purified from homozygous EBV-transformed lymphoblastoid cells with antibody L243

HLA-DR4 (HLA-DRB1*04:01) = molecular target: T9, HLA-DR4 (HLA-DRB1*04:01) (human); test: competition ELISA vs biotin-HA 306-318;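 further: HLA and competitor incubated 24 to 72 h, maximal signal taken from wells lacking competitor, background from wells lacking HLA molecule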
T9 construct: mature; purified from homozygous EBV-transformed lymphoblastoid cells with antibody L243

[5] = molecular target: T10, HLA-DR11 (HLA-DRB1*11:01) (human); test: competition ELISA vs biotin-HA 306-318;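 further: HLA and competitor incubated 24 to 72 h, maximal signal taken from wells lacking competitor, background from wells lacking HLA molecule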
T10 construct: mature; purified from homozygous EBV-transformed lymphoblastoid cells with antibody L243

[6] = molecular target: T11, HLA-DP401 (HLA-DPB1*04:01) (human, UniProt P20036 29-222); test: competition ELISA vs biotin-Oxy 271-287
T11 construct: mature; purified from homozygous EBV-transformed lymphoblastoid cells with antibody B7/21

[7] = molecular target: T12, HLA-DP402 (HLA-DPB1*04:02) (human, UniProt P20036 29-222); test: competition ELISA vs biotin-Oxy 271-287
T12 construct: mature; purified from homozygous EBV-transformed lymphoblastoid cells with antibody B7/21

[8] = molecular target: T13, HLA-DRB3 (HLA-DRB3*01:01) (human); test: competition ELISA vs biotin-LOL 191-210
T13 construct: mature; purified from homozygous EBV-transformed lymphoblastoid cells with antibody L243

[9] = molecular target: T1, HLA-DR13 (HLA-DRB1*13:01) (human); test: competition ELISA vs biotin-B1 21-36

| Binder | relative affinity (HLA-DR7 (HLA-DRB1*07:01)) | relative affinity [1] | relative affinity (HLA-DR3 (HLA-DRB1*03:01)) | relative affinity [2] | relative affinity [3] | relative affinity (HLA-DR1 (HLA-DRB1*01:01)) | relative affinity [4] | relative affinity (HLA-DR4 (HLA-DRB1*04:01)) | relative affinity [5] | relative affinity [6] | relative affinity [7] | relative affinity [8] | IC50 [9] [µM] |
| --- | --- | --- | --- | --- | --- | --- | --- | --- | --- | --- | --- | --- | --- |
| MEMKILRALNFGLGR-NH2 [CCNB1 285-299] | 0.1 | 18 | 51 | 1 | 0.03 | 1 | 2 | 7 | 4 | 30 | 4 |  |  |
| NSALVQDLAKAVAKV-NH2 [CCNB1 419-433] | 183 |  | 1 | 37 | 7 | 155 |  | 333 | 3 |  | 148 | 7 |  |
| AKYLMELTMLDYDMV-NH2 [CCNB1 323-337] | 8 | 7 | 2 |  | 2 | 4 | 2 | 0.2 | 0.4 | 1 | 6 | 41 |  |
| HTLAKYLMELTMLDY-NH2 [CCNB1 320-334] | 18 | 18 | 1 | 10 | 3 | 16 | 17 | 1 | 2 | 8 | 3 | 24 |  |
| PQLNSALVQDLAKAV-NH2 [CCNB1 416-430] | 47 | 1800 | 9 |  | 71 | 693 | 548 | 54 | 123 | 59 | 74 | 3 |  |
| TERVRLVTRHIYNREE (modifications not checked) [B1 21-36] |  |  |  |  |  |  |  |  |  |  |  |  | 0.051 |
| AKISTLPQLNSALVQ-NH2 [CCNB1 410-424] |  | 966 |  | 94 | 12 | 89 |  | 408 | 1 |  | 1120 |  |  |
